Source: a protein production outcome set (Wang et al. 2014)

Assay: label from the status in PepcDB records
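Note: failed if final PepcDB status was selected cloned or expressed and not failed if soluble or beyond.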

| Sequence | protein production |
| --- | --- |
| MGIQETDPLTQLSLPPGFRFYPTDEELMVQYLCRKAAGYDFSLQLIAEIDLYKFDPWVLPNKALFGEKEWYFFSPRDRKYPNGSRPNRVAGSGYWKATGTDKIISTEGQRVGIKKALVFYIGKAPKGTKTNWIMHEYRLIEPSRRNGSTKLDDWVLCRIYKKQSSAQKQVYDNGIANAREFSNNGTSSTTSSSSHFEDVLDSFHQEIDNRNFQFSNPNRISSLRPDLTEQKTGFHGLADTSNFDWASFAGNVEHNNSVPELGMSHVVPNLEYNCGYLKTEEEVESSHGFNNSGELAQKGYGVDSFGYSGQVGGFGFM | failed |
| MEPNRFGDILAFVSAVKAGSFTSAAATLGVTRSAVGKSVARLEARLGVRLLHRTTRKLNVTGEGLVVFERWSQILEDLEEVDATMAQRRGKPAGILRLTAPLSFGQRHILPILNAYVTNWPEIQADVWFTDHYVDLIEEGIDVAVRIGGVKDDARILSRTIGGQQFVTCAAPGYLAKKGVPSTPADLAGHDTIFFLSGQRPMPWRLGQGDAIEVCDGPGRMNIDSSEALREAALSGFGLIHLPTYITGKDLQRGDLVEVLEAYRPPADPIRLIYPSKRHLSPRTRAFIDLLIERWRDGVPWERLEPAS | failed |
| MEPNIKVQSEDLRYIVQVVTSKIKVYDIIVDPVSVKFYFFDSDNEGIDASFDYIRRELVDKGFIPFLSRDGENFIQVTRRPKQRYFGNIVNVVLLVATILSTMYVGSQYSINFVPRGSFYELRLWAYGFLFFSAPLLLILGIHESAHFLVAKRHHVKASLPFFIPFPVGIGTFGAFISLRDPLPNRKAMTEIGAAGPIAGFLTALPLLFVADYFQGVIKPIPPYYIPFKVTFPLIYQLLGLHTNFTGPIFPMVFAVWVGMFATAMNLIPAGQLDGSHILRGVLGNRANVLSYVFLAFLFGIGFFYTGWWIIAIFVVFTGLVHPPALNDFSKISKLDIVLGIVSLAMFILTFTIVPIKPA | failed |
| MKAVKSERERGSRRRHRDGDVVLPAGVVVKQERLSPEVAPPAHRRPDHSGGSPSPPTSEPARSGHRGNRARGVSRSPPKKKNKASGRRSKSPRSKRNRSPHHSTVKVKQEREDHPRRGREDRQHREPSEQEHRRARNSDRDRHRGHSHQRRTSNERPGSGQGQGRDRDTQNLQAQEEEREFYNARRREHRQRNDVGGGGSESQELVPRPGGNNKEKEVPAKEKPSFELSGALLEDTNTFRGVVIKYSEPPEARIPKKRWRLYPFKNDEVLPVMYIHRQSAYLLGRHRRIADIPIDHPSCSKQHAVFQYRLVEYTRADGTVGRRVKPYIIDLGSGNGTFLNNKRIEPQRYYELKEKDVLKFGFSSREYVLLHESSDTSEIDRKDDEDEEEEEEVSDS | failed |
| AGNETVTEGFKEGQVGSSAMPHKMNARSCERVGGLQVILRGYLTMVADLSGQQWNEGDVFCSVIRRVALPDAFFALDGMYETFLTVLAEFGAFPAMIDRELERYLPFLATTRILMAAVRVGVGRETAHEVIKENAVAVALNMRENGGEQDLIDRLAADERLPMTREQLDEALADRHAFIGAAESQVARVVDRVNDLVRRYPAAAQYTPGDIL | failed |
| ADPFASITHLVDSAMVNKTDSIDREKTSDEPKPIEADESFDDFIYNFASDDALQRQRVVFPLPYYNGERASKIDRKYWKHDDLFAKQSYYTLLFDREEDMDLVGDTSLTSVQVEWIFVKKRMVKKYYFERIKGAWMLEAINLRPIEENENEDFVEFFGHFATDSIFQSRRIRQPLVFVTTDPDDDFSILETTLDLNQWFAFKPALPADKLSNINYGQQNDDNASHKILALKGIGNGFSNILYFQRKDSGWELYKFEDTSI | not failed |
| MPLHRTPRTGPEPRTLALLAGAGLAAGAAAWAVSRSRENPVVFRPNDDAPDRVARHPEATMPTGRTVTINRPRSELFAFWRDFSNLPQFMESVEHVTVVGDVSRWTLAAPFGRKITLETRIVEEVPDRLIAWRSTDGSDVRAEGAVTFRDAPAGRGTEVEAVVAYVPAGGEAGRLIARLFRLAPAMQGRRELRRFKMLMEAGEIATSRNRKD | failed |
| MTIAATMLRAITVLMALLLLVAAGPAAAADEGGDLLEQFLGRKYEPVLKPLEIPEGTPPSEALFLYLNQGYGDAGVIGDFLAKGADANYADKEYRITLLHNVAHYGHAEATRILLAAGARVNAVNGEGNTPLFAAVHEGHDDVARILLDAGADVTIANSYWYTPLREACRRGNTGMVRLLLEKGADVNITDNKGFTPLHAAVSAEALEAATLILDSGADINIAGRYGDTPLHYAVGLGYEEFVRLFLARGADPTIRNDRGLTPRQLAEERGFASIVELFRNWGKNTI | failed |
| MATESSSPSSVRKVVVHLRATGGAPILKQSKFKIPGTDKFAKVIDFLRRQLHSDSLFVYVNSAFSPNPDESVIDLYNNFGFDGKLVVNYACSMAWG | failed |
| MTDQTYCDRLVQDTPFLTGHGRLSEQQVDRIILQLNRYYPQILTNKEAEKFRNPKASLRVRLCDLLSHLQRSGERDCQEFYRALYIHAQPLHSRLPSRHALQNSDCTELDSGSQSGELSNRGPMSFLAGLGLAVGLALLLYCYPPDPKGLPGTRRVLGFSPVIIDRHVSRYLLAFLADDLGGL | failed |
| MEFTTQHFIALAPMLITTITTVVVMLAIAWKRNHSQTFLLSTVGLNLALLSLLPALKVAPLAVTSLITIDKFACLYMAIILVATLACVTLAHAYLGEGAKGFPGNREELYLLLLMSALGGLVLVSANHLAGLFIGLELLSVPVYGLVAYAFFNKRSLEAGIKYMVLSAAGSAFLLFGMALLYADAGSLSFDQIGKALATTSMPSLVAQLGLGMMLVGLAFKLSLVPFHLWTPDVYEGAPAPVAAFLATASKVAVFAVVVRLFMLSPAASSGVLSTVLAVIAVASILIGNLLALTQSNLKRLLGYSSIAHFGYLVIALVASKGLALEAMGVYLVTYVITSLGAFGVITLMSSPYGGRDADALYEYRGLFWRRPYLTAVLTVMMLSLAGIPLTAGFIGKFYIIATGVESHLWWLVGALVIGSAIGVYYYLRVMVTLYLVEPNLRRHDAPLKWEQRTGGVMLLAIAILAFVLGVYPQPLLEMVQQAGLQLIG | failed |
| MISSLTTIISTGTNLGSGTDDDIYFGIHLNNGQKKEWLLDKETYNDFENGATDEYYLYINDMDFLPTMVDKVWVRKNSTGSFAGNWFFKALRIDANGNDVLSVSPNEWITDLEHHHHHH | not failed |
| MAEGSSLALPRVSASLHEPARAFSFRLDEGKSPWVEVVITIGSFPRCPEVTMMWPPPPTFSVFLLLLLSQVPSSRPQSPGTKKLRLVGPANRPEEGRLEVLHQGQWGTVCDDDFALQEATVACRQLGFESALTWAHSAKFGQGEGPIWLDNVRCLGTEDTLDQCGSNGWGVSDCRHSEDVGVVCHPRRQQGYHSEKVSNALGPQGRRLEEVRLKPILASAKRHSPVTEGAVEVRYEGHWRQVCDQGWTMNNSRVVCGMLGFPSQAPVNSHYYRKVWNLKMKDPKSRLNGLTKKNSFWIHRVDCLGTEPHLAKCQVQVAPGRGKLRPACPGGMHAVVNCVAGPHFQRQKPKPKRKESGAEELKVRLRSGAQVGEGRVEVLMNRQWGTVCDHRWNLISASVVCRQLGFGSAREALFGAQLGQGLGPIHLSEVRCRGYEQTIGDCLALEGSQNGCQHANDAAVRCNIPDMGFQNKVRLAGGRNSEEGVVEVQVEVNGVPRWGTVCSDHWGLTEAMVTCRQLGLGFANFAIKDTWYWQGTPEAKEVVMSGVRCSGTEMALQQCQRHGPVHCSHGSGRFSAGVACMNSAPDLVMNAQLVQETAYLEDRPLSMLYCAHEENCLSKSADHMDWPYGHRRLLRFSSQIYNLGRADFRPKAGRHSWIWHQCHRHYHSIEVFTHYDLLTLNGSKVAEGHKASFCLEDTNCPSGVQRRYACANFGEQGVAVGCWDTYRHDIDCQWVDITDVSPGDYIFQVVVNPTNDVAESDFSNNMIRCRCKYDGQRVWLHNCHTGDPYRPNAELSLEQEQRLRNNLI | failed |
| KIIGYARVSFNAQKDDLERQIQLIKSYAEENGWDIQILKDIGSGLNEKRKNYKKLLKMVMNRKVEKVIIAYPDRLTRFGFETLKEFFKSYGTEIVIINKKHKTPQEELVEDLITIVSHFAGKLYGMHSHKYKKLTKTVKEIVREEDAKEKE | not failed |
| MVEPMTPRFKYTKASQENIQQLGNILEQCFVMSFGDSEIYVKGIGLENFRVIYREQKVAGGLAILPMGQWWGGQRVPMAGIAAVGIAPEYRGDGAAIALIQHTLQEISEQDIPISVLYPATQRLYRKAGYEQAGSSCVWEIPTDSIQIQHASLPLEPVVLKNNPIFHELYQQQAQLTHGYLDRHPAIWQGLNRTLDTETLYSYLIGDKDKPQGYIIFTQERTRDGSILRIRDWVTLSNPAVQSFWTFIANHRSQIDKVTWKSSVIDALTLLLPEQSATIRSQDRWMLRIVNVCKALEARGYPLGVEAELHLEVQDDLLATNQGKFILSVANGKSEVTKGGKGELQLDIKGLASLYTSLFTPRQLQLTGKLQATETALLKATQIFAGESPWMIDFF | not failed |
| MQNPIDSLLYVKISAEQAGKIFENLESSIPLPIQLSEPGQKEDFKAENIKPEMILAGMLTVFAYDRENPHITYYRKIFNLLRPDIRKEMTEAAIIKIKNNDFDMAEEILLSLEGLNPDDGITKLNLALLMEERSQFCEMRELFEDALSFNKRAEELYSELILFEPPLPGVFFNAAYFFIKQKNYIKAKSLLKTYLEIENDSSETAEFRKAKASELLKTISEQALDDELFQKAYKCIDLGEEEKAAESIKLFLRKNPKVWNAWFLLGWALRRMGRWEDARSSFLKTIELLENSEISDKEPLCDVYNELAICLMELELFDEAEKHLINALSLDSENIKIISNLGTLALKQGKQEEAEAFFRTVLEINPDDKIALNVLGKPRA | failed |
| PDISVAQPASALRYHLRPPRRNDGAAIHQLVSECPPLDLNSLYAYLLLCEHHAHTCVVAESPGGRIDGFVSAYLLPTRPDVLFVWQVAVHSRARGHRLGRAMLGHILERQECRHVRHLETTVGPDNQASRRTFAGLAGERGAHVSEQPFFDRQAFGGADHDDEMLLRIGPFTH | not failed |
| MKGLERESHFTLNENAMFFECAYSCDNALFLQLDDRSFFITDSRYTQEAKESVQPKNGVLAEVVESSDLVQSAIDLIVKSSVKKLFFDPNQVNLQTYKRLNSALGDKVALEGVPSYHRQKRIIKNEHEIQLLKKSQALNVEAFENFAEYVKKIFDEKESLSERYLQHKVKDFLTREGVYDLSFEPILALNANASKPHALPSAKDFLKAEHSILLDMGIKYERYCSDRTRTAFFDPKDFVFKREQSFKDKERQKIYDIVKEAQEKAISGIRAGMTGKEADSLARGVISDYGYGQYFTHSTGHGIGLDIHELPYISSRSETILEEGMVFSVEPGIYIPGFFGVRIEDLVVIKNSRSELL | failed |
| MKNFLETIEDMILIINREGRLLYANTAVPKKLGYPHEELMSMHILTITSAGKMAEGEKILAELFAGKKESLPLSLEKKEGTSIPAKARIWQGKWHNEPCLFAIIKDLSKEERALEHHHHHH | not failed |
| KDFLAMFSPKCGGCNRPVLENYLSAMDTVWHPECFVCGDCFTSFSTGSFFELDGRPFCELHYHHRRG | not failed |
| MAELYVKPGNKERGWNDPPQFSYGLQTQTGGPKRTPLTKRVAAPQDGSPRAPETSGPPPVDHPPPSSKASRPPPMGSCPATGVEPPSSPVIESETLIEDVLRPLEQALEDCHGHTKKQVCDDISRRLALLREQWAGGKLSIPVKKRMALLVQELLHHQWDAADDIHRSLMVDHVTEVSQWMVGVKRLIAEKKSLSSEETKEEKFTVEPENQTIPGFQQPS | not failed |
| MTNPLNSTAANRSNQPSSDGISDGQITNEEAESLINKKNCSGHKLKEVTDSDTFSDNGKDDSDTKKRFHYHQDQRRMSLTSIVAVESPSSSNAPSRKTIDLGHGSDLIYIQRFLPFQQSWTFFDYLDKHIPWTRPTIRVFGRSCLQPRDTCYVASSGLTALVYSGYRPTSYSWDDFPPLKEILDAIYKVLPGSRFNSLLLNRYKGASDYVAWHADDEKIYGPTPEIASVSFGCERDFVLKKKKDEESSQARNKPTFVWCEPAGKTGDSGPAKKRLKRSSREDQQSLTLKHGSLLVMRGYTQRDWIHSVPKRAKAEGTRINLTFRLVL | not failed |
